The RNAGym collection of RNA variant scans (doi:10.7554/elife.90254)

B1: LINE1-mini (parent)
chain: GGCAGAGCUCAACACAGCGUGGCAAAGUGGCUGUGGCUAGACUGCC

Variants of: B1
Assay: self-cleavage, relative activity (ratio to wild type); higher = more cleavage; in vitro, sequencing; the parent is a self-cleaving ribozyme

Variant	self-cleavage
G17U U20G	0.12
G2A U9A	0.31
C13A U20G	0.1
C3A C45U	0.53
U9C G30C	0.04
G2U A4U	0.08
A24C C37G	0.02
C3U A25C	0.52
G7A U32A	0.13
U20A G33U	0.07
G44C C45G	0.21
U9G G30A	0.09
U9G U20A	0.07
A11G A16G	0.02
A24U U28A	1.25
G1U G17U	0.06
U32A A41U	0.13
C3G G7A	0.49
G1A A6U	1.55
G1A G19U	0.94
A11C G44A	0.06
G2U C13U	0.06
A6U U28A	0.4
G7C A12G	0.06

Variant	self-cleavage
C13G C45U	0.26
U38C A41G	0.11
C3U A26C	0.35
C8U C37G	0.07
A39C A41U	0.4
A14U G22U	0.87
G33A C46A	0.1
C8U A41C	0.16
C3U C31G	0.04
G35C C42G	0.04
C18A C37G	0.07
A25C G30A	0.44
C10U C37A	0.02
G2A C46G	0.96
A12U G44C	0.17
A12C G21A	0.02
A11U G36A	0.02
A6U U34G	0.28
G2U U32A	0.03
G2C G33A	0.04
G22A U43A	0.06
C42A U43G	0.07
C3U C13A	0.15
C18G A39G	0.07

Variant	self-cleavage
G17U U28A	0.17
C3A U34C	0.14
U28C C37G	0.01
G29U C31A	0.15
C10U C23A	0.43
G5U G40C	0.05
A14C C37A	0.08
G27C C46A	0.71
A16G G33A	0.03
G1A G5A	0.2
C8U U43C	0.16
A16C C23G	0.08
C42U C45G	0.09
G2A A14U	0.37
G17U C46A	0.13
G21A U38A	0.89
G35C C45A	0.06
A14C C15G	0.02
A11C U20A	0.02
U28A U32C	0.18
A24U C46G	1.03
A4C U20A	0.08
A12C C31G	0.01
C8A G21C	0.21

Variant	self-cleavage
A12U U34G	0.04
C10A U38A	0.15
A16C C37A	0.06
A41C	0.06
A11U C42G	0.02
A14G U38G	0.01
C10G A25C	0.1
A41G C42G	0.06
G19A G36A	0.18
G5C G40C	0.1
G17C G36C	0.04
A11G G44A	0.03
C15A A16C	0.08
G1A A14G	0.39
A6G G29U	0.09
C10G C15U	0.09
A11U G35U	0.02
A4U C23G	0.37
U28C G29C	1.2
C13G G29U	0.33
G27A C46G	1.05
U43G C45G	0.09
A11C C31U	0.03
U9C C23G	0.03

Variant	self-cleavage
G7U U28C	0.05
A16G G19U	0.47
U20G A41G	0.19
A14C C42G	0.07
A6C G27U	0.56
U20A A26U	0.91
A14U G29U	0.5
A16G U38A	0.4
A4U G29C	0.24
C13U C18A	0.07
C10G G30C	0.2
A6G A14G	0.07
A11U C46G	0.06
C13G G19U	0.11
G7C U28A	0.18
C13G G36A	0.29
G2A G29C	0.65
G21A C31A	0.12
G22U C42G	0.04
G21C C31U	0.3
C31U C45A	0.13
G36A G40U	0.47
U9G A41U	0.14
C42G C46U	0.09

Variant	self-cleavage
A4C C31A	0.14
G19C U32A	0.16
G1U A11G	0.02
A39G C46A	0.14
C15A C18A	0.04
C3G A6U	0.79
G2C G21A	0.51
A41G C46U	0.16
C15A C42A	0.06
U34G G36A	0.07
A6G U32C	0.07
G7U G21U	0.1
A41G C45U	0.49
C8U G19U	0.24
A14G C31U	0.04
A24C A26G	0.33
A39C G44U	0.1
G19A C45A	0.79
G36C C37G	0.07
U28A U43C	0.09
U9C A16U	0.04
A11G U34G	0.03
A11U C37A	0.02
C31A G36A	0.11

Variant	self-cleavage
G29A U38C	0.44
A16C G19A	0.18
U9C C23U	0.02
G19C U20C	0.61
U9C A25C	0.03
G19A G22C	0.71
C10A U32C	0.03
C37U C45U	0.04
G36A U43G	0.01
G22U G44A	0.85
A14G G21U	0.79
G7U G30U	0.1
U20G U43G	0.02
G19U G30U	1.11
G27U U28A	0.34
U32G G40A	0.05
A11G U38A	0.02
U9G C15A	0.1
G7C G33C	0.08
G7U	0.1
A25C G40U	0.08
G1A C37A	0.07
U32C C37G	0.06
